In US20220211812A1 (Bristol-Myers Squibb, published 2022):
Square brackets hold non-standard residues; d marks the D form. Ends that are not written are not given here. Phe(4-Ac) = CC(=O)c1ccc(C[C@H](N)C(=O)O)cc1

Biological target: T1, human RXFP1 receptor (human, UniProt Q9HBX9 1-757)
T1 sequence (looked up): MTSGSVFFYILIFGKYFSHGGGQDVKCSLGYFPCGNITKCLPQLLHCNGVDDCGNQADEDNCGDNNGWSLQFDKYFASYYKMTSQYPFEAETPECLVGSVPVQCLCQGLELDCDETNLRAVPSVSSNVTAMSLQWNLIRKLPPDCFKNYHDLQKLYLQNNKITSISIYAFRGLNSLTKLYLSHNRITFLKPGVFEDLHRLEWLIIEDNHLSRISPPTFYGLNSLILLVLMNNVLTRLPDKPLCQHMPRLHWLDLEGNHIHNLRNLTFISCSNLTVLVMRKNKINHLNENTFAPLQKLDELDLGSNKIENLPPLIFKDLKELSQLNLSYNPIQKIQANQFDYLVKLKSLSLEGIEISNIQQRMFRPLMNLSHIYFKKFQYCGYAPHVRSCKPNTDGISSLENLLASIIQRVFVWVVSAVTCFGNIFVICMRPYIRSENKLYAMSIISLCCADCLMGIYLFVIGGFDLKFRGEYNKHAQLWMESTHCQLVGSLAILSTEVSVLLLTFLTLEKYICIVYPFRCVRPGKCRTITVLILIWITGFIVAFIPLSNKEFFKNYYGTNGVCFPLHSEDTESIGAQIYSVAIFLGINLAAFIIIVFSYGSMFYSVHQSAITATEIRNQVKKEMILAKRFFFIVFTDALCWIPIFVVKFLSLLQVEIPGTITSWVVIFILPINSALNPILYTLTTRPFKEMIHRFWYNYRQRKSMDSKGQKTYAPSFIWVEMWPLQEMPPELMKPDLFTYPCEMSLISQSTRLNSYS
Test: cell-based or functional assay

B1: AQ1-Sar-Sar-Sar-Glu-Glu-Glu^γ-C13-COOH (ligand)
chain 1: XLYSALANKCCHVGCTKRSLARFC
chain 2: ASWMEEVIKLCGRELVRAQIAICGMSTWS
peptide: XXXEEE
modifications: not fully specified; Sar = sarcosine (N-methylglycine); Glu^γ bonded by amide to fatty acid -C13-COOH; oxime-linked to pAcF of the A chain; pAcF (para-acetyl-L-phenylalanine) at position 1, oxime-linked to PK enhancer Sar-Sar-Sar-Glu-Glu-Glu^γ-C13-COOH
With B1 the “hRXFP1/CHO-K1 cAMP EC50 (nM, avg)” value was 0.59 nM.

B2: AQ1-KKKKKK-Glu^γ-C13-COOH (ligand)
chain 1: XLYSALANKCCHVGCTKRSLARFC
chain 2: ASWMEEVIKLCGRELVRAQIAICGMSTWS
peptide: KKKKKKE
modifications: not fully specified; Glu^γ bonded by amide to fatty acid -C13-COOH; oxime-linked to pAcF of the A chain; pAcF (para-acetyl-L-phenylalanine) at position 1, oxime-linked to PK enhancer KKKKKK-Glu^γ-C13-COOH
With B2 the “hRXFP1/CHO-K1 cAMP EC50 (nM, avg)” value was 0.08 nM.

B3: BM25/AN1-C13-CH3 (ligand)
chain 1: NLYSALANKCCHVGCTKRSLARFC
chain 2: ASWMEEVIKLCGRELVRAQIAICG[Phe(4-Ac)]STWS
modifications: disulfide (positions not given here); not fully specified (some residues); ends not checked; also: PK enhancer C13-CH3 oxime-linked to pAcF25
B3 was tested, and the “hRXFP1/CHO-K1 cAMP EC50 (nM, avg)” value was 1.85 nM.

B4: AQ1-EEEEPEEEEPEEEEPEEGGG-C14-CH3 (ligand)
chain 1: XLYSALANKCCHVGCTKRSLARFC
chain 2: ASWMEEVIKLCGRELVRAQIAICGMSTWS
peptide: EEEEPEEEEPEEEEPEEGGG
modifications: linked to fatty acid -C14-CH3; oxime-linked to pAcF of the A chain; pAcF (para-acetyl-L-phenylalanine) at position 1, oxime-linked to PK enhancer EEEEPEEEEPEEEEPEEGGG-C14-CH3
In the case of B4, the “hRXFP1/CHO-K1 cAMP EC50 (nM, avg)” value is reported as 0.16 nM.

B5: AQ1-Sar-Sar-Sar-Sar-Ser-Sar-Sar-Sar-Sar-Glu^γ-C13-COOH (ligand)
chain 1: XLYSALANKCCHVGCTKRSLARFC
chain 2: ASWMEEVIKLCGRELVRAQIAICGMSTWS
peptide: XXXXSXXXXE
modifications: not fully specified; Sar = sarcosine (N-methylglycine); Glu^γ bonded by amide to fatty acid -C13-COOH; oxime-linked to pAcF of the A chain; pAcF (para-acetyl-L-phenylalanine) at position 1, oxime-linked to PK enhancer Sar-Sar-Sar-Sar-Ser-Sar-Sar-Sar-Sar-Glu^γ-C13-COOH
With B5 the “hRXFP1/CHO-K1 cAMP EC50 (nM, avg)” value was 0.39 nM.

B6: AQ1-EEEEEE-Glu^γ-C15-COOH (ligand)
chain 1: XLYSALANKCCHVGCTKRSLARFC
chain 2: ASWMEEVIKLCGRELVRAQIAICGMSTWS
peptide: EEEEEEE
modifications: not fully specified; Glu^γ bonded by amide to fatty acid -C15-COOH; oxime-linked to pAcF of the A chain; pAcF (para-acetyl-L-phenylalanine) at position 1, oxime-linked to PK enhancer EEEEEE-Glu^γ-C15-COOH
With B6 the “hRXFP1/CHO-K1 cAMP EC50 (nM, avg)” value was 11.1 nM.

B7: RLX-BM25/AN1 (ligand)
chain 1: NLYSALANKCCHVGCTKRSLARFC
chain 2: ASWMEEVIKLCGRELVRAQIAICG[Phe(4-Ac)]STWS
modifications: disulfide (positions not given here); ends not checked
B7 was tested, and the “hRXFP1/CHO-K1 cAMP EC50 (nM, avg)” value was 0.09 nM.

B8: AQ1-EEEGGG-Glu^γ-C13-COOH (ligand)
chain 1: XLYSALANKCCHVGCTKRSLARFC
chain 2: ASWMEEVIKLCGRELVRAQIAICGMSTWS
peptide: EEEGGGE
modifications: not fully specified; Glu^γ bonded by amide to fatty acid -C13-COOH; oxime-linked to pAcF of the A chain; pAcF (para-acetyl-L-phenylalanine) at position 1, oxime-linked to PK enhancer EEEGGG-Glu^γ-C13-COOH
B8 was tested, and the “hRXFP1/CHO-K1 cAMP EC50 (nM, avg)” value was 0.31 nM.

B9: AQ1-EEEGGG-Glu^γ-C15-CH3 (ligand)
chain 1: XLYSALANKCCHVGCTKRSLARFC
chain 2: ASWMEEVIKLCGRELVRAQIAICGMSTWS
peptide: EEEGGGE
modifications: not fully specified; Glu^γ bonded by amide to fatty acid -C15-CH3; oxime-linked to pAcF of the A chain; pAcF (para-acetyl-L-phenylalanine) at position 1, oxime-linked to PK enhancer EEEGGG-Glu^γ-C15-CH3
For B9, the “hRXFP1/CHO-K1 cAMP EC50 (nM, avg)” value was 0.46 nM.

B10: AQ1-EEEGGG-Glu^γ-C14-COOH (ligand)
chain 1: XLYSALANKCCHVGCTKRSLARFC
chain 2: ASWMEEVIKLCGRELVRAQIAICGMSTWS
peptide: EEEGGGE
modifications: not fully specified; Glu^γ bonded by amide to fatty acid -C14-COOH; oxime-linked to pAcF of the A chain; pAcF (para-acetyl-L-phenylalanine) at position 1, oxime-linked to PK enhancer EEEGGG-Glu^γ-C14-COOH
B10 was tested, and the “hRXFP1/CHO-K1 cAMP EC50 (nM, avg)” value was 1.88 nM.

B11: AQ1-KKSGGSGGEE-Glu^γ-C13-COOH (ligand)
chain 1: XLYSALANKCCHVGCTKRSLARFC
chain 2: ASWMEEVIKLCGRELVRAQIAICGMSTWS
peptide: KKSGGSGGEEE
modifications: not fully specified; Glu^γ bonded by amide to fatty acid -C13-COOH; oxime-linked to pAcF of the A chain; pAcF (para-acetyl-L-phenylalanine) at position 1, oxime-linked to PK enhancer KKSGGSGGEE-Glu^γ-C13-COOH
For B11, the “hRXFP1/CHO-K1 cAMP EC50 (nM, avg)” value was 0.16 nM.

B12: WT-RLX (ligand)
chain 1: QLYSALANKCCHVGCTKRSLARFC
chain 2: ASWMEEVIKLCGRELVRAQIAICGMSTWS
modifications: disulfide (positions not given here); ends not checked
In the case of B12, the “hRXFP1/CHO-K1 cAMP EC50 (nM, avg)” value is reported as 0.12 nM.

B13: RLX-AQ1 (ligand)
chain 1: XLYSALANKCCHVGCTKRSLARFC
chain 2: ASWMEEVIKLCGRELVRAQIAICGMSTWS
modifications: pAcF (para-acetyl-L-phenylalanine) at position 1
B13 was tested, and the “hRXFP1/CHO-K1 cAMP EC50 (nM, avg)” value was 0.11 nM.

B14: AQ1-dKdKdKdKdKdK-Glu^γ-C13-COOH (ligand)
chain 1: XLYSALANKCCHVGCTKRSLARFC
chain 2: ASWMEEVIKLCGRELVRAQIAICGMSTWS
peptide: KKKKKKE
modifications: not fully specified; dK = D-lysine (six); Glu^γ bonded by amide to fatty acid -C13-COOH; oxime-linked to pAcF of the A chain; pAcF (para-acetyl-L-phenylalanine) at position 1, oxime-linked to PK enhancer dKdKdKdKdKdK-Glu^γ-C13-COOH
With B14 the “hRXFP1/CHO-K1 cAMP EC50 (nM, avg)” value was 0.1 nM.

B15: AQ1-KKSGGSGG-Glu^α-C13-COOH (ligand)
chain 1: XLYSALANKCCHVGCTKRSLARFC
chain 2: ASWMEEVIKLCGRELVRAQIAICGMSTWS
peptide: KKSGGSGGE
modifications: not fully specified; Glu^α linked to fatty acid -C13-COOH; oxime-linked to pAcF of the A chain; pAcF (para-acetyl-L-phenylalanine) at position 1, oxime-linked to PK enhancer KKSGGSGG-Glu^α-C13-COOH
For B15, the “hRXFP1/CHO-K1 cAMP EC50 (nM, avg)” value was 0.27 nM.

B16: AQ1-EEEEGEEEEGEEEEGEEEE-Gluγ-C14-CH3 (ligand)
chain 1: XLYSALANKCCHVGCTKRSLARFC
chain 2: ASWMEEVIKLCGRELVRAQIAICGMSTWS
peptide: EEEEGEEEEGEEEEGEEEEE
modifications: not fully specified; Glu^γ bonded by amide to fatty acid -C14-CH3; oxime-linked to pAcF of the A chain; pAcF (para-acetyl-L-phenylalanine) at position 1, oxime-linked to PK enhancer EEEEGEEEEGEEEEGEEEE-Gluγ-C14-CH3
B16 was tested, and the “hRXFP1/CHO-K1 cAMP EC50 (nM, avg)” value was 0.67 nM.

B17: AQ1-GSGSGSGS-Glu^γ-C15-COOH (ligand)
chain 1: XLYSALANKCCHVGCTKRSLARFC
chain 2: ASWMEEVIKLCGRELVRAQIAICGMSTWS
peptide: GSGSGSGSE
modifications: not fully specified; Glu^γ bonded by amide to fatty acid -C15-COOH; oxime-linked to pAcF of the A chain; pAcF (para-acetyl-L-phenylalanine) at position 1, oxime-linked to PK enhancer GSGSGSGS-Glu^γ-C15-COOH
For B17, the “hRXFP1/CHO-K1 cAMP EC50 (nM, avg)” value was 2.79 nM.

B18: AQ1-EEEGGG-Glu^γ-C13-CH3 (ligand)
chain 1: XLYSALANKCCHVGCTKRSLARFC
chain 2: ASWMEEVIKLCGRELVRAQIAICGMSTWS
peptide: EEEGGGE
modifications: not fully specified; Glu^γ bonded by amide to fatty acid -C13-CH3; oxime-linked to pAcF of the A chain; pAcF (para-acetyl-L-phenylalanine) at position 1, oxime-linked to PK enhancer EEEGGG-Glu^γ-C13-CH3
For B18, the “hRXFP1/CHO-K1 cAMP EC50 (nM, avg)” value was 0.38 nM.

B19: AQ1-Sar-Sar-Sar-Sar-Ser-Glu^γ-C13-COOH (ligand)
chain 1: XLYSALANKCCHVGCTKRSLARFC
chain 2: ASWMEEVIKLCGRELVRAQIAICGMSTWS
peptide: XXXXSE
modifications: not fully specified; Sar = sarcosine (N-methylglycine); Glu^γ bonded by amide to fatty acid -C13-COOH; oxime-linked to pAcF of the A chain; pAcF (para-acetyl-L-phenylalanine) at position 1, oxime-linked to PK enhancer Sar-Sar-Sar-Sar-Ser-Glu^γ-C13-COOH
With B19 the “hRXFP1/CHO-K1 cAMP EC50 (nM, avg)” value was 0.32 nM.

B20: AQ1-RGGEEKKKEKEK-Glu^γ-C13-COOH (ligand)
chain 1: XLYSALANKCCHVGCTKRSLARFC
chain 2: ASWMEEVIKLCGRELVRAQIAICGMSTWS
peptide: RGGEEKKKEKEKE
modifications: not fully specified; Glu^γ bonded by amide to fatty acid -C13-COOH; oxime-linked to pAcF of the A chain; pAcF (para-acetyl-L-phenylalanine) at position 1, oxime-linked to PK enhancer RGGEEKKKEKEK-Glu^γ-C13-COOH
With B20 the “hRXFP1/CHO-K1 cAMP EC50 (nM, avg)” value was 0.29 nM.
